Test results: patent US20230012273A1 (Boehringer Ingelheim, published 2023)

How the values were obtained:
[1] = biological target: T1, full-length human SIRPαV2 (CAA71403.1) on cells (human, UniProt P78324 31-504); test: flow cytometry, THP-1 cells (endogenous V2)
T1 construct: one molecule for CHO-K1 and Expi-CHO transfectants (CAA71403.1) and for endogenous V2 on THP-1 cells and on CD14+ monocytes of V2/V2 donors; also called CHO-hSIRPαV2; αV2 WT
Experimental: (§1) Antibody binding to human monocytic cell lines homozygous for the V1-allele (U-937) or the V2-allele (THP-1) of SIRPα is assessed. U-937 or THP-1 cells are blocked with donkey IgG and incubated on ice with increasing concentrations of antibodies for 60 minutes, washed and stained with AF647-conjugated donkey F(ab′)₂ anti-human IgG secondary reagent. Cells are washed, fixed, and analyzed by flow cytometry. Median fluorescent intensity is determined and used as a measure of antibody binding.

[2] = biological target: T2, full-length human SIRPαV1 (NP_542970.1) on cells (human, UniProt P78324 31-504); test: flow cytometry, U-937 cells (endogenous V1)
T2 construct: one molecule for CHO-K1 and Expi-CHO transfectants (NP_542970.1) and for endogenous V1 on U-937 cells and on CD14+ monocytes of V1/V1 donors; also called CHO-hSIRPαV1; αV1 WT
Experimental: as §1

[3] = biological target: T2, full-length human SIRPαV1 (NP_542970.1) …; test: flow cytometry, competition with CD47 tetramer, CHO-K1 cells
Experimental: (§2) Cells are washed, fixed, and analyzed by flow cytometry. Median fluorescent intensity is determined and used as a measure of CD47 binding.

[4] = biological target: T1, full-length human SIRPαV2 (CAA71403.1) …; test: as above
Experimental: as §2

[5] = biological target: T1, full-length human SIRPαV2 (CAA71403.1) …; test: flow cytometry, competition with CD47 tetramer, monocytes V2V2
Experimental: Cells are washed, fixed, and analyzed by flow cytometry. Median fluorescent intensity of CD14+gated population is determined and used as a measure of CD47 binding.

[6] = biological target: T3, recombinant human SIRPγ extracellular domain (ECD)/His protein (NP_061026.2) (human, UniProt Q9P1W8 29-360); test: ELISA, immobilised His-tagged human SIRPγ extracellular domain (average fluorescence)
T3 construct: coated on ELISA plates; also called recombinant hSIRPγ; not shown: His-tag
Experimental: A biochemical ELISA-based assay is utilized to evaluate the binding of antibodies to SIRPγ. Black, 96-well flat-bottom immunoassay plates are coated with recombinant human SIRPγ extracellular domain (ECD)/His protein (NP_061026.2) diluted in DPBS and incubated overnight at 4° C. […] Plates are washed and serially titrated antibodies are added to respective wells for an incubation of about 1-2 h at RT. After the incubation, the plates are washed and HRPO-conjugated mouse anti-human IgG secondary reagent (Jackson Immuno Research) is added to each well and incubated for about 1-2 hours. Following the final plate washing, Amplex™ red substrate is added and incubated at RT in the dark for 15-30 minutes. Fluorescence is detected (λEx/λEm=530/590 nm) using EnVision Multilabel Plate Reader (Perkin Elmer). Average fluorescence is plotted for measuring the antibody binding.

[7] = biological target: T4, full-length cynomolgus SIRPβ1 (XP_005568598) on CHO cells, clone PA2 (cynomolgus monkey); test: flow cytometry, CHO cells
T4 construct: whole, on cells; also called SIRPβ1 XP_005568598 Clone PA2
Experimental: as §1, with “cells expressing full-length cynomolgus SIRPβ1 (XP_005568598) and SIRPβ1v3 (XP_005568593) is evaluated by flow cytometry. SIRPβ1-” for “human monocytic cell lines homozygous for the V1-allele (U-937)”, “SIRPβ1V3-expressing CHO” for “the V2-allele (THP-1) of SIRPα is assessed. U-937 or THP-1”

[8] = biological target: T5, full-length cynomolgus SIRPβ1v3 (XP_005568593) on CHO cells, clone 1HC6 (cynomolgus monkey); test: flow cytometry, CHO cells
T5 construct: also called SIRPβ1v3 XP-005568593 Clone 1HC6
Experimental: as §1, with “cells expressing full-length cynomolgus SIRPβ1 (XP_005568598) and SIRPβ1v3 (XP_005568593) is evaluated by flow cytometry. SIRPβ1-” for “human monocytic cell lines homozygous for the V1-allele (U-937)”, “SIRPβ1V3-expressing CHO” for “the V2-allele (THP-1) of SIRPα is assessed. U-937 or THP-1”

[9] = biological target: T6, full-length human SIRPαV1 D→N on Expi-CHO cells (human, UniProt P78324 31-504); test: flow cytometry, Expi-CHO cells
T6 construct: the entry already carries the change (PDDV to PDNV)
Experimental: (§3) Expi-CHO parental cells are transduced with lentiviruses containing either full-length wild-type human SIRPαV1 allele (NP_542970.1) or full-length human SIRPαV1 with amino acid point mutations (Table 56) and sorted to achieve matching expression levels. These cells are blocked with donkey IgG and incubated on ice with increasing concentrations of antibodies for 60 minutes, washed and stained with AF647-conjugated donkey F(ab′)₂ anti-human IgG antibodies. Stained cells are washed, fixed, and analyzed by flow cytometry. Median fluorescent intensity is determined and used as a measure of antibody binding.

[10] = biological target: T7, full-length human SIRPαV1 DD→EN on Expi-CHO cells (human, UniProt P78324 31-504); test: flow cytometry, Expi-CHO cells
T7 construct: the entry already carries the change (PDDV to PENV)
Experimental: as §3

[11] = biological target: T8, full-length human SIRPβ1 (NP_006056.2) on cells (human, UniProt O00241 30-398); test: flow cytometry, Expi-CHO cells
T8 construct: also called β1 WT
Experimental: These cells are blocked with donkey IgG and incubated on ice with increasing concentrations of antibodies for 60 minutes, washed and stained with AF647-conjugated donkey F(ab′)₂ anti-human IgG antibodies. Stained cells are washed, fixed, and analyzed by flow cytometry. Median fluorescent intensity is determined and used as a measure of antibody binding.

[12] = biological target: T9, full-length human SIRPγ E→D on Expi-CHO cells (human, UniProt Q9P1W8 29-387); test: flow cytometry, Expi-CHO cells expressing full-length human SIRPγ E→D
T9 construct: the entry already carries the change (PENV to PDNV)
Experimental: as §3, with “SIRPγ” for “SIRPαV1 allele”, “SIRPγ” for “SIRPαV1”, “64)” for “56)”

Row | EC50 [1] [pM] | EC50 [2] [pM] | IC50 [3] [pM] | IC50 [4] [pM] | IC50 [5] [pM] | binding result [6] | EC50 [7] [pM] | EC50 [8] [pM] | EC50 [9] [pM] | EC50 [10] [pM] | EC50 [11] [pM] | binding result [12] | Binder
1 | 22300 | 21100 | 5600 | 6000 | 4600 | no binding (tested: about 67 nM) |  |  |  |  |  |  | Antibody B (antibody, human IgG1, kappa, L234A L235A, V domains shown) VH: QVQLVQSGAEVKKPGASVKVSCKASGYTFTGNYMHWVRQAPGQGLEWMGWINPNSGGTNYAQKFQGRVTMTRDTSISTAYMELSRLRSDDTAVYYCVSGSGWYENYYYYGMDVWGQGTTVTVSS VL: DIQMTQSPSSVSASVGDRVTITCRASQGISSWLAWYQQKPGKAPKLLIYAESSLQSGVPSRFSGSGSGTDFTLTISSLQPEDFATYYCQQANSFPLTFGGGTKVEIKR
2 | 200 | 500 | 900 | 600 | 110 |  | 200 | 400 | 200 | 200 | 200 |  | Anti-SIRPα antibody KWAR23 (antibody, V domains shown) VH: EVQLQQSGAELVKPGASVKLSCTASGFNIKDYYIHWVQQRTEQGLEWIGRIDPEDGETKYAPKFQDKATITADTSSNTAYLHLSSLTSEDTAVYYCARWGAYWGQGTLVTVSS VL: QIVLTQSPAIMSASPGEKVTLTCSASSSVSSSYLYWYQQKPGSSPKLWIYSTSNLASGVPARFSGSGSGTSYSLTISSMEAEDAASYFCHQWSSYPRTFGAGTKLELK
3 | 300 | 600 | 700 | 300 | 50 |  |  |  | 2700 | 1100 | 200 |  | Antibody C (antibody, human IgG1, kappa, L234A L235A, V domains shown) VH: EVQLVESGGGLVQPGGSLRLSCAASGFTFSSYDMHWVRQATGKGLEWVSVIGIAGDTYYPGSVKGRFTISRENAKNSLYLQMNSLRVGDTAVYYCARGGSWDDAFDIWGQGTMVTVSS VL: DIQMTQSPSSLSASIGDKVTITCRASQDINNYLAWFQQKPGKAPKSLIYTASSLQSGVPSKFSGSGSGTDFTLTISSLQPEDFATYYCQQYVSYPYTFGQGTKLEIKR
4 |  |  |  |  |  |  | 600 |  |  |  | 1600 | no binding (tested: about 67 nM) | Antibody A10 (antibody, human IgG1, kappa, L234A L235A) heavy: not shown light: DIQMTQSPSSLSASVGDRVTITCRASQDINNYLAWFQQKPGKAPKSLIYTASSLHSGVPSKFSGSGSGTDFTLTISSLQPEDFATYYCQQYVSYPYTFGQGTKLEIKRTVAAPSVFIFPPSDEQLKSGTASVVCLLNNFYPREAKVQWKVDNALQSGNSQESVTEQDSKDSTYSLSSTLTLSKADYEKHKVYACEVTHQGLSSPVTKSFNRGEC
5 |  |  |  |  | 300 |  |  | 1000 | 800 | 600 |  | no binding (tested: about 67 nM) | Antibody E22 (antibody, human IgG1, kappa, L234A L235A, V domains shown) VH: QVQLQESGPGLVKPSETLSLTCTVSGGSIRDYYWSWIRQPPGKGLEWIGFIYYNGRTFYQSSLKSRVTISLDTSKNQFSLKMTSVTAADTAVYYCARVRAYSGIGLDGTDVWGQGTTVTVSS VL: DIVMTQSPLSLPVTPGEPASISCRSSQSLLYSTGYTYLDWYLQRPGQSPQLLIYGGSSRASGVPDRFSGSGSGTDFTLKISRVEAEDVGVFYCGQALQTPLTFGQGTKVEIKR

Continued, binder first:

Row | Binder | EC50 [1] [pM] | EC50 [2] [pM] | IC50 [3] [pM] | IC50 [4] [pM] | IC50 [5] [pM] | binding result [6] | EC50 [7] [pM] | EC50 [8] [pM] | EC50 [9] [pM] | EC50 [10] [pM] | EC50 [11] [pM] | binding result [12]
6 | Antibody A (antibody, human IgG1, kappa, L234A L235A) heavy: not shown light: DIQMTQSPSSLSASVGDRVTITCRASQDINNYLAWFQQKPGKAPKSLIYTASSLHSGVPSKFSGSGSGTDFTLTISSLQPEDFATYYCQQYVSYPYTFGQGTKLEIKRTVAAPSVFIFPPSDEQLKSGTASVVCLLNNFYPREAKVQWKVDNALQSGNSQESVTEQDSKDSTYSLSSTLTLSKADYEKHKVYACEVTHQGLSSPVTKSFNRGEC |  |  |  |  |  | no binding (tested: about 67 nM) | 700 |  |  |  | 1600 | no binding (tested: about 67 nM)
7 | Antibody D (antibody, human IgG1, kappa, L234A L235A, V domains shown) VH: EVQLVESGGGLVQPGGSLRLSCAASGFTFSSFDMHWVRQPTGKGLEWVSTIGIAGDTYFPGSVKGRFTISRENAKNSLYLQMNSLRAGDTAVYYCARGGNWDDALDIWGQGTMVTVSS VL: DIQMTQSPSSLSASVGDRVTITCRASQDINNYLAWFQQKPGKAPKSLIYTASSLQSGVPSKFSGSGSGTDFTLTISSLQPEDFATYYCQQYNTYPYTFGQGTKLEIKR | 300 | 500 | 600 | 300 | 50 | no binding (tested: about 67 nM) |  |  | 9600 | 6600 | 200 | 
8 | Antibody E (antibody, human IgG1, kappa, L234A L235A) heavy: not shown light: DIVMTQSPLSLPVTPGEPASISCKSSQSLLYSNGYNYLDWYLQRPGQSPQLLIYLGSNRASGVPDRFSGSGSGTDFTLKISRVEAEDVGVFYCMQALQTPLTFGGGTKVEIKRTVAAPSVFIFPPSDEQLKSGTASVVCLLNNFYPREAKVQWKVDNALQSGNSQESVTEQDSKDSTYSLSSTLTLSKADYEKHKVYACEVTHQGLSSPVTKSFNRGEC | 400 | 500 | 700 |  |  | no binding (tested: about 67 nM) |  | 800 | 400 | 400 |  | no binding (tested: about 67 nM)
